From article PMC4619609

Legend:
Experiment in all cases: ELISA
mAb 1331 (CD4bs) = conditions: mAbs (10 µg/ml); gp120s from virus lysates; parent: est. 2.0; read off a plot
mAb 2158 (V2i) = conditions: mAbs (10 µg/ml); gp120s from virus lysates; parent: est. 2.0; read off a plot
mAb 1361 (V2i) = conditions: mAbs (10 µg/ml); gp120s from virus lysates; parent: est. 2.8; read off a plot
[1] = target: recombinant CD4-IgG2 protein (UniProt P01730); conditions: 10 µg/ml; gp120s from virus lysates; parent: est. 3.7; read off a plot
mAb 2219 (V3) = conditions: mAbs (10 µg/ml); gp120s from virus lysates; parent: est. 2.2; read off a plot
mAb 830A (V2i) = conditions: mAbs (10 µg/ml); gp120s from virus lysates; parent: est. 2.1; read off a plot
mAb 1357 (V2i) = conditions: mAbs (10 µg/ml), gp120s from virus lysates
mAb 1418 (Ctrl) = conditions: mAbs (10 µg/ml); gp120s from virus lysates; parent: est. 0.21; read off a plot
mAb 1393A (V2i) = conditions: mAbs (10 µg/ml); gp120s from virus lysates; parent: est. 2.2; read off a plot

Substance: gp120 of ZM109 WT R153E
- response (mAb 1331 (CD4bs)): 1.9 OD 405nm
- response (mAb 2158 (V2i)): 1.7 OD 405nm
- response (mAb 1361 (V2i)): 2.3 OD 405nm
- response [1]: 3.6 OD 405nm
- response (mAb 2219 (V3)): 2.6 OD 405nm
- response (mAb 830A (V2i)): 2 OD 405nm
- ratio to parent (mAb 1357 (V2i)): 3 x
- response (mAb 1357 (V2i); parent: est. 0.46, read off a plot): 1.5 OD 405nm
- response (mAb 1418 (Ctrl)): 0.17 OD 405nm
- response (mAb 1393A (V2i)): 2.4 OD 405nm
